Data from patent US10500249B2, “Compositions and methods for preventing or treating diseases, conditions, or processes characterized by aberrant fibroblast proliferation and extracellular matrix deposition” (MOERAE MATRIX, INC., priority 2014, dated 2019).

Columns and labels:
Assay in all cases: Kinase Profiling Assay
Details in all cases: 100 μM
FGFR3 (h) = FGFR3 (h) (Homo sapiens, UniProt P22607); assay type: biochemical
In short: (§1)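 Duplicate wells; [radiolabeled] ATP phosphate onto cationic substrate; filter capture (negatively charged membrane); scintillation count; % of 100% activity control. Selectivity screen of MK2 peptide inhibitors, 266 human kinases.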

EphB2 (h) = biological target: T1, EphB2 (h) (Homo sapiens, UniProt P29323); assay type: biochemical
T1 sequence (P29323 19-1055): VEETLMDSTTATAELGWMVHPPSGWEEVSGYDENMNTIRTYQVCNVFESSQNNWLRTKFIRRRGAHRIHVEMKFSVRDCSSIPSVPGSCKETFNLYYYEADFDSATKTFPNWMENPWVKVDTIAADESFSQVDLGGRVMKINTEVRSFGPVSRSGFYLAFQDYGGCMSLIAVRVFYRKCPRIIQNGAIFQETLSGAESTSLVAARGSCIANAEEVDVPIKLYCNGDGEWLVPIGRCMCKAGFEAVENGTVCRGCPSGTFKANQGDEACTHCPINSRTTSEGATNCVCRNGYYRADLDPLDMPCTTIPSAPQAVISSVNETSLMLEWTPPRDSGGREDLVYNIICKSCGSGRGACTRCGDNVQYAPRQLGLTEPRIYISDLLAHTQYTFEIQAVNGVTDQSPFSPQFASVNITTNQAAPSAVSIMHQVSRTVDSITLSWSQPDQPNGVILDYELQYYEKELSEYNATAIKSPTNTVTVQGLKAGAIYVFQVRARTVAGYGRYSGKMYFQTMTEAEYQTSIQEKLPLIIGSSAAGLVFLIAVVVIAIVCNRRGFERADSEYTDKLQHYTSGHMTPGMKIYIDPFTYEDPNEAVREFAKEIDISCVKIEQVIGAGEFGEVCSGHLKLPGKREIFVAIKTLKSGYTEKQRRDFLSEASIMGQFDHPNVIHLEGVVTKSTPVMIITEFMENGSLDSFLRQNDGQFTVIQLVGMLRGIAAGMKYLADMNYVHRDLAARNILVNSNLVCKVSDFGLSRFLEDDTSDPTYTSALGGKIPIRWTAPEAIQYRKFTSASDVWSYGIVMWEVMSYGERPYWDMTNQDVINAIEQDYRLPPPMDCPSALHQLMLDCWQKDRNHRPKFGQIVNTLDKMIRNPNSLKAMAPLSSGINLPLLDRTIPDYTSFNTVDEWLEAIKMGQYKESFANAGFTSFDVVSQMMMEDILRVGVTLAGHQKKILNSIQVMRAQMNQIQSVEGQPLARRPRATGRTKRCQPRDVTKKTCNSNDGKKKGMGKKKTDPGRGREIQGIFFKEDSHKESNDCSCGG
In short: as §1

FGFR1 (h) = FGFR1 (h) (Homo sapiens, UniProt P11362); assay type: biochemical
FGFR1 (h), sequence (P11362 22-822): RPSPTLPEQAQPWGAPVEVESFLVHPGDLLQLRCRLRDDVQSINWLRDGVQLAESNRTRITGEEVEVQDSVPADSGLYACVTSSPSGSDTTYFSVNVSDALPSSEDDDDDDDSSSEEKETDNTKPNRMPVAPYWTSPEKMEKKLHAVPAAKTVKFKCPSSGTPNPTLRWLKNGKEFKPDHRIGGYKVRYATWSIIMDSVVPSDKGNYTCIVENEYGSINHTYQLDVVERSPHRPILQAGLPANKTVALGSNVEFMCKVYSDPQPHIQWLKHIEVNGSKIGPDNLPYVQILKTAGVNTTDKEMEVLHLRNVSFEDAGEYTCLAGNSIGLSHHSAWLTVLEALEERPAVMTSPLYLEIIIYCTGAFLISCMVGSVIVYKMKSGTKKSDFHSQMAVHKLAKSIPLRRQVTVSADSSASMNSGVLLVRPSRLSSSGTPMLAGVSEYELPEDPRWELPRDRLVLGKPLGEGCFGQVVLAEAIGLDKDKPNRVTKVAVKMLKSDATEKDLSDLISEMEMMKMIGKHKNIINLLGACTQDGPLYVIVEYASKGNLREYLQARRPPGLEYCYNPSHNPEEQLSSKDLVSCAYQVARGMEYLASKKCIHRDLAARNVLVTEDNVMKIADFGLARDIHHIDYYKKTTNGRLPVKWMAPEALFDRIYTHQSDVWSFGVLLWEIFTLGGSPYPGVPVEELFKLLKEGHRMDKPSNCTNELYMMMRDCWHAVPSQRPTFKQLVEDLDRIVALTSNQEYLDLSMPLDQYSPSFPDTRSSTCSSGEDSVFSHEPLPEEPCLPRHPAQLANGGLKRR
In short: as §1

Tie2(R849W) (h) = Tie2(R849W) (h) (Homo sapiens, UniProt Q02763, R849W); assay type: biochemical
Tie2(R849W) (h), sequence (Q02763 23-1124 R849W): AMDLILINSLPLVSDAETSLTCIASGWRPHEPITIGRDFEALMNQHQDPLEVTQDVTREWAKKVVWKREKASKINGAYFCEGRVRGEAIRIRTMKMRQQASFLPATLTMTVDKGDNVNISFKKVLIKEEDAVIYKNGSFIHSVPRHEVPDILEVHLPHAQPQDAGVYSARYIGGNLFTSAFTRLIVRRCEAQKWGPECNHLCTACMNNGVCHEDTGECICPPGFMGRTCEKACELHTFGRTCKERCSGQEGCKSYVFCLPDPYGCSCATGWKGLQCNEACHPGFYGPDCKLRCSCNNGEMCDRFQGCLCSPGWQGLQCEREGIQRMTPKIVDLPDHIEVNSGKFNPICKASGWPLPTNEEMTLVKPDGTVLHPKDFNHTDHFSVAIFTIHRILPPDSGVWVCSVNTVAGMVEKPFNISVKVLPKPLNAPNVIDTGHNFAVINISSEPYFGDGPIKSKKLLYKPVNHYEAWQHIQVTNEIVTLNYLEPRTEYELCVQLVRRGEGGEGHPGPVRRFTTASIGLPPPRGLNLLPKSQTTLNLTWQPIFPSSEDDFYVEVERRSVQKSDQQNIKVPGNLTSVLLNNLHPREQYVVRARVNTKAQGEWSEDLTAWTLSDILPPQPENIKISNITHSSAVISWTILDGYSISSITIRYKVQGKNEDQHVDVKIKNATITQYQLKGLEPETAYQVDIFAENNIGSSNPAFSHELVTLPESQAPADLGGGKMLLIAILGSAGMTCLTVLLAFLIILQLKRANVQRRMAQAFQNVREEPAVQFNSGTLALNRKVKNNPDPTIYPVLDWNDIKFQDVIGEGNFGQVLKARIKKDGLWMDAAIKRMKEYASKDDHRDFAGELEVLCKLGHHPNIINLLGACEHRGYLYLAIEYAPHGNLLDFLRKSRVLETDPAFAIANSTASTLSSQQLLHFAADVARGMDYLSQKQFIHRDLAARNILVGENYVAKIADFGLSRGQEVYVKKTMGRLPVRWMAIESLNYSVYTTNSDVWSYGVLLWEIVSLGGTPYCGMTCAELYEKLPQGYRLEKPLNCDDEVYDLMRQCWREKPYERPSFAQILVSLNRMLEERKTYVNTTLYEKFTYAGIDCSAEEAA
In short: as §1

SGK (h) = assay type: biochemical, human
Procedure: (§2) Every kinase activity measurement was conducted in duplicate.
(§3) Specifically, in these assays, a positively charged substrate is phosphorylated with a radiolabeled phosphate group from an ATP if the kinase is not inhibited by an inhibitor peptide. The positively charged substrate then is attracted to a negatively charged filter membrane, quantified with a scintillation counter, and compared to a 100% activity control.
(§4) In addition to determining the IC50 of the compound, the specificity of MK2 inhibitory peptides was assessed by examining activities of all 266 human kinases available for testing in the Millipore kinase profiling service (Table 1).

MLCK (h) = assay type: biochemical, human
Procedure: as §2, §3, §4

CaMKI (h) = assay type: biochemical, human
Procedure: as §2, §3, §4

Abl (M351T) (h) = Abl (M351T) (h) (Homo sapiens, UniProt P00519, M351T); assay type: biochemical
In short: as §1

MST2 (h) = biological target: T2, MST2 (h) (Homo sapiens, UniProt Q13188); assay type: biochemical
T2 construct: purchased Millipore
T2 sequence (Q13188 1-491): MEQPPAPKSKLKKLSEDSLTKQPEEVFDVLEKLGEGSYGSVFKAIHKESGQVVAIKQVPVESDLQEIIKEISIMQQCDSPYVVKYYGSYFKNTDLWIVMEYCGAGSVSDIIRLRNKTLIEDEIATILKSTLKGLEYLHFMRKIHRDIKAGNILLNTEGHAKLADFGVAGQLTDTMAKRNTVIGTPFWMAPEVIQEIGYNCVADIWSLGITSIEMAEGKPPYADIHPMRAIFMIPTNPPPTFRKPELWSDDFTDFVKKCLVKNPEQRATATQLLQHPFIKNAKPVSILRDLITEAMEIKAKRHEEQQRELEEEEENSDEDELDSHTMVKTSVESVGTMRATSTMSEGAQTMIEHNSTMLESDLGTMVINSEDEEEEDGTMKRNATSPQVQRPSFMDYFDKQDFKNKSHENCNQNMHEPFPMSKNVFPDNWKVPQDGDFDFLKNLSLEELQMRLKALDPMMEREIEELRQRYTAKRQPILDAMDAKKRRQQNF
In short: as §1

MKK7β (h) = biological target: T3, MKK7β (h) (Homo sapiens, UniProt O14733); assay type: biochemical
T3 construct: purchased Millipore
T3 sequence (O14733 1-419): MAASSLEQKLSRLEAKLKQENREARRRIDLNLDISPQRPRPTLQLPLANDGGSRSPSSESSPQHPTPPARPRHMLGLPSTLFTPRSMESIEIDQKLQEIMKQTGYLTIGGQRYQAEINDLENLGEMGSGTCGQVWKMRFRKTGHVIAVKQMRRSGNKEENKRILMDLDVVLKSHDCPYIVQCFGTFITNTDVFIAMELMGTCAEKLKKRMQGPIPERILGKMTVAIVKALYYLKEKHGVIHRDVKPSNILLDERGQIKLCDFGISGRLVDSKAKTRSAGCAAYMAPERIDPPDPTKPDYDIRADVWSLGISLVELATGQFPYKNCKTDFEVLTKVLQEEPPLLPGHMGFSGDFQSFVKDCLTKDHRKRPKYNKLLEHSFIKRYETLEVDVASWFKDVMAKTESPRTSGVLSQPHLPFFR
In short: as §1

FGFR3 (h), sequence (P22607 23-806): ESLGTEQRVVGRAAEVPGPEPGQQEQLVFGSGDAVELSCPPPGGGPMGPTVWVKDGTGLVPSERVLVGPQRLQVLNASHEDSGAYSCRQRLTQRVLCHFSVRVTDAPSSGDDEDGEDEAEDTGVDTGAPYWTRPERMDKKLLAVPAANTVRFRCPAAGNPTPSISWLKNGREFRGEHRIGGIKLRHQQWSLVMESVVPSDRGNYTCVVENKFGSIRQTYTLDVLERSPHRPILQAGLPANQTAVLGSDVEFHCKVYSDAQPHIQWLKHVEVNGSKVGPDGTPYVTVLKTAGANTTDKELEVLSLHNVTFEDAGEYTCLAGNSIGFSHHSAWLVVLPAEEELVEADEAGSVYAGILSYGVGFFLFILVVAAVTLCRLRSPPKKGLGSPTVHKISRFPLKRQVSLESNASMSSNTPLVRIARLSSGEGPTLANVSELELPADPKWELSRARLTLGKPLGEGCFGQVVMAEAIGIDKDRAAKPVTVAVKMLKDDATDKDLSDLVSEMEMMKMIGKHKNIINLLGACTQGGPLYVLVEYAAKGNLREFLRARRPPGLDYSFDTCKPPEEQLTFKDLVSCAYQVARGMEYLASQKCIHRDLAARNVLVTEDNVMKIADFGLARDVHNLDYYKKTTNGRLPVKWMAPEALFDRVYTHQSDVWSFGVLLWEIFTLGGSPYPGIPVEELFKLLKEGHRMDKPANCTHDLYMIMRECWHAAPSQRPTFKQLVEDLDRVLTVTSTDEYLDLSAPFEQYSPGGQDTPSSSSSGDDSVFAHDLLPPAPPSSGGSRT

“YARAAARQARAKALNRQLGVA (Mammalian) [MMI-0200]” was tested, and the “% activity” value (FGFR3 (h)) was 208%, the “% activity” value (EphB2 (h)) was 128% and the “% activity” value (FGFR1 (h)) was 97%. For the same sequence, the “% activity” value (Tie2(R849W) (h)) was 89%, the “% activity” value (SGK (h)) was 115% and the “% activity” value (MLCK (h)) was 103%. The “% activity” value (CaMKI (h)) was 21%.
In the case of “HRRIKAWLKKIKALARQLGVAA (Mammalian) [MMI-0500]”, the “% activity” value (FGFR3 (h)) is reported as 10%, the “% activity” value (EphB2 (h)) is reported as 70% and the “% activity” value (Abl (M351T) (h)) is reported as 61%. For the same sequence, the “% activity” value (FGFR1 (h)) was 18%, the “% activity” value (MST2 (h)) was 2% and the “% activity” value (SGK (h)) was 2%. The “% activity” value (MLCK (h)) was 0% and the “% activity” value (CaMKI (h)) was −1%.
FAKLAARLYRKALARQLGVAA [MMI-0300] was tested, and the “% activity” value (EphB2 (h)) was 18%, the “% activity” value (MKK7β (h)) was 100% and the “% activity” value (Abl (M351T) (h)) was 90%. The “% activity” value (FGFR1 (h)) was 55%, the “% activity” value (MST2 (h)) was 19% and the “% activity” value (SGK (h)) was 48%. The “% activity” value (MLCK (h)) was 2% and the “% activity” value (CaMKI (h)) was 1%.
For KAFAKLAARLYRKALARQLGVAA [MMI-0400], the “% activity” value (FGFR3 (h)) was 0%, the “% activity” value (EphB2 (h)) was 22% and the “% activity” value (MKK7β (h)) was 94%. The “% activity” value (FGFR1 (h)) was 59%, the “% activity” value (Tie2(R849W) (h)) was 108% and the “% activity” value (MST2 (h)) was 11%. For the same sequence, the “% activity” value (SGK (h)) was 54%, the “% activity” value (MLCK (h)) was 1% and the “% activity” value (CaMKI (h)) was 0%.
